Patent US11155643B2, “Glucan kinases and methods for processing starch using the same” (University of Kentucky Research Foundation, priority 2017, dated 2021)

Legend:
[1] = target: T1, Cyanidioschyzon merolae Cm-GWD DUF domain (CmGWD DUF, amino acids 345-469; full length Cm-GWD SEQ ID NO: 2) (Cyanidioschyzon merolae, UniProt M1VD00); experiment: differential scanning fluorimetry (DSF)-based thermal shift assay, oligosaccharide binding
T1 construct: recombinant, purified
T1 sequence (M1VD00 345-469): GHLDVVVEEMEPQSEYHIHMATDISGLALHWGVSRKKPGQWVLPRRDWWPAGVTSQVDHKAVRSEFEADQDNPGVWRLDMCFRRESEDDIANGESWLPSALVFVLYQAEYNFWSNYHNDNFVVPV
Procedure: FIGS. 5A-C show graphs and images illustrating expression and thermal shift of various domains of the Cm-GWD. (A) is an image showing the expression of the Cm-GWD DUF domain constructs with varying N- and C-termini. (B) is an image showing the expression of individual N-terminal domains of Cm-GWD.
To characterize the enzymes' structure, the architecture of the dikinases was first analyzed. The sequences of the dikinases were analyzed using bioinformatic tools. The dikinase primary sequences from multiple species were analyzed to predict sequence conservation, secondary structure, regions of disorder, and regions of hydrophobicity in order to define the optimal constructs for recombinant protein expression of Cm-GWD. At-GWD and PWD have been reported to have cTP, one or two CBM domains, and a dikinase domain (FIG. 4). […]
The binding of purified proteins to oligosaccharides was measured using a differential scanning fluorimetry (DSF)-based thermal shift assay. […] As a proof of principle, the binding of the Cm-GWD DUF to the oligosaccharide maltohexaose and to maltose was measured, as a negative control. […] The change in Tm was monitored with increasing concentration of oligosaccharide (FIG. 5C). […]

[2] = starch-phosphorylation assay (33P-β-ATP radio-label incorporation into starch); assay type: biochemical, Arabidopsis; conditions: FIG. 2, FIG. 3
Procedure: FIG. 8 includes the framework for the C6 versus C3 assay. To label the C6-position, non-phosphorylated starch is incubated in the presence of GWD and ^33P-β-ATP, the protein and label are washed away, and the starch is incubated in the presence of ATP and PWD. The C3 position is labeled in a similar manner, except ^33P-β-ATP is used with PWD. These products are then used as substrates in dephosphorylation assays. A starch-phosphorylation assay is routinely used in the lab to measure the specific activity of protein constructs. This assay has 3 benefits: it utilizes an endogenous substrate, measures the amount of phosphate added to glucose (dikinase activity), and allows comparison of addition to the C3- and C6-positions (site-specific activity) (FIG. 8). Phosphate-free starch was isolated from plants lacking the dikinase GWD, and the sample dialyzed to remove free phosphate. To measure dikinase activity, this phosphate-free starch was used as the substrate. The starch was incubated with the dikinase in question along with ^33P-β-ATP, the ^33P-β-ATP and dikinase was washed out, and radio-label incorporation into the starch was measured.

[3] = glucose release from native starch treated with combinations of amylases, dikinase and phosphatase; assay type: biochemical, Arabidopsis; conditions: for effect on glucose release when added to amylases: BAM3, ISA3, 25° C., 60 minutes, FIG. 7
Procedure: FIG. 7 includes a plot showing the glucose released for native Arabidopsis starch that was incubated at 25° C. for 60 minutes with combinations of amylases (BAM+ISA), dikinase (At-GWD), or phosphatase (At-SEX4), undigested starch was pelleted with a high-speed spin, the supernatant sugars were hydrolyzed via acid hydrolysis and glucose content was measured.
To observe how GWDs can be utilized to enhance starch utilization, native Arabidopsis starch was first treated with combinations of BAM3, ISA3, St-GWD, and At-SEX4. a high-speed spin was performed to remove the undigested starch, any remaining oligo-saccharides were hydrolyzed, and glucose released into the supernatant was measured (FIG. 7). Glucose was only released upon addition of amylases.
Native Arabidopsis starch was treated with combinations of BAM3, ISA3, StGWD, and AtSEX4, performed a high-speed spin to remove the undigested starch, hydrolyzed any remaining oligo-saccharides, and measured glucose released into the supernatant (FIG. 7). Glucose was only released upon addition of amylases, as expected.

[4] = stability of purified, concentrated protein on storage; assay type: physicochemical; conditions: 4° C., concentrated to 18 mg/ml
Procedure: In addition, these constructs were purified using a 3-step purification scheme to sufficient purity for enzymatic assays (FIGS. 9B,D & 10A). Constructs that express each of the individual domains were identified, as well as constructs just lacking the cTP. Expression yields for these constructs ranged from 2-65 mg/1 L of E. coli using a 3-step purification. One of the most promising St-GWD constructs allowed the instant inventors to purify 60-65 mg of >95% pure St-GWD per liter of E. coli using a 3-step purification protocol (FIGS. 10A & 10B). Importantly, the purified protein was concentrated to 18 mg/ml and the protein was stable at 4° C. for >1 WEEK.

OC[C@H]1O[C@H](O[C@H]2[C@H](O)[C@@H](O)[C@@H](O[C@H]3[C@H](O)[C@@H](O)[C@@H](O[C@H]4[C@H](O)[C@@H](O)[C@@H](O[C@H]5[C@H](O)[C@@H](O)[C@@H](O[C@H]6[C@H](O)[C@@H](O)C(O)O[C@@H]6CO)O[C@@H]5CO)O[C@@H]4CO)O[C@@H]3CO)O[C@@H]2CO)[C@H](O)[C@@H](O)[C@@H]1O (some centres unmarked) [maltohexaose]
Kd ([1]; change in Tm with increasing concentration of oligosaccharide, apparent dissociation constant): 7 mM

OC[C@H]1O[C@H](O[C@H]2[C@H](O)[C@@H](O)C(O)O[C@@H]2CO)[C@H](O)[C@@H](O)[C@@H]1O (some centres unmarked) [maltose]
stabilization (change in Tm) ([1]; increasing concentration of oligosaccharide, negative control): No stabilization

B1: Cm-GWD H1162A: active site mutant (H1162A) of Cm-GWD 511C fragment (protein)
chain: MTILGLERRSLDDDGETVICFSVEEDGFALRVHADLSPLVIHWGIARHRVTEFLQPDESLAVETKGRTYRFENKAMRTEFVPDEHHQGTYYAEIHLKKEHAPRAVTFVLFNPELNRWYRAEGGGNFVLRMDLESFSQLPGSVGKHEDVAQKIIEVEVEYGSWTLMHRYNLANDILRNSMSALDADLLQIVFVWLRYSFLRQLDWQRSYNTQPRLLAHAQEQLTTTLAQVFVSRPDLRLWVRLCLSMLGRGGGNGQRIRDDILRIMHKHHIPETPGHFMEQWHQKLHNNTTPDDVAICESYLAFLRSNGDKNVFYETLQKHGVTKERLASYERPIFAEVQTYPCDTNSLIHDFEEYLHVLKSVHSGTDLAVVLDYARWTLDQELISKVEHIQSVRAELMASPQGALEFSFLIAEARKMLQSTLEHVEDPTRVRDMLFLDLALDELARLAVESQGLADYVAETDVQKACNLLVVLAQHVGWSMLSSAFLETSYDLAALVYGIQSDVQLQEPDFGLRLYATMERLMDCVGHDVVERLHHDVQPKAVYIGVGCNIDQKVVTLFSEELIRGQAAFALAQVLRPLMRNIRKQANLGNWQVISPGSCTGQGAVFDELLSIQYKTFAEPTVAFVRRISGEEEIPTGMVGLITTDTLDILSACAVRARNEHVVLACCFSEELFDQLTERFRGAWVAVRSLTDGSLDFQPIQEGAGRTTAADTTDGASEHAQRRAVSMRSDIEKKPVKSVLGIAQFNTQRGGSKSNSLAKLIRVIPDWIHIPPCALLPFGVCEQVLAEAQNSDVGERFQQLMAELDGKGPTDDCSALLARLRHCVRQLAPSDTFMKELQQVLQHEGFHSIDNLDMRRAWECILDVWASKFNDRAFLALRKAGAVGKTSLSSLYMAVLVQEVVPADYAFVLHTKNPFTGEPSEIYGELVHGLGEVLVGNYPGRALGFTYSKSTGQVRVCNYPSKTKALIPRGGLIFRSDSNGEDLEDFAGAGLFDSILMQPAEEVVVRYRELKILQDKAYLERILSKIGKCGIEIESNCGNKPQDIEGCICGEDVYVVQSRDQV
modifications: Fragment of Cyanidioschyzon merolae GWD polypeptide
ability to phosphorylate starch (specific activity) [2]: lacked activity

B2: St-GWD: full length Solanum tuberosum glucan, water dikinase, amino acids 1-1464 (protein, listed as Solanum tuberosum)
chain: MSNSLGNNLLYQGFLTSTVLEHKSRISPPCVGGNSLFQQQVISKSPLSTEFRGNRLKVQKKKIPMEKKRAFSSSPHAVLTTDTSSELAEKFSLGGNIELQVDVRPPTSGDVSFVDFQVTNGSDKLFLHWGAVKFGKETWSLPNDRPDGTKVYKNKALRTPFVKSGSNSILRLEIRDTAIEAIEFLIYDEAHDKWIKNNGGNFRVKLSRKEIRGPDVSVPEELVQIQSYLRWERKGKQNYPPEKEKEEYEAARTVLQEEIARGASIQDIRARLTKTNDKSQSKEEPLHVTKSDIPDDLAQAQAYIRWEKAGKPNYPPEKQIEELEEARRELQLELEKGITLDELRKTITKGEIKTKVEKHLKRSSFAVERIQRKKRDFGHLINKYTSSPAVQVQKVLEEPPALSKIKLYAKEKEEQIDDPILNKKIFKVDDGELLVLVAKSSGKTKVHLATDLNQPITLHWALSKSPGEWMVPPSSILPPGSIILDKAAETPFSASSSDGLTSKVQSLDIVIEDGNFVGMPFVLLSGEKWIKNQGSDFYVGFSAASKLALKAAGDGSGTAKSLLDKIADMESEAQKSFMHRFNIAADLIEDATSAGELGFAGILVWMRFMATRQLIWNKNYNVKPREISKAQDRLTDLLQNAFTSHPQYREILRMIMSTVGRGGEGDVGQRIRDEILVIQRNNDCKGGMMQEWHQKLHNNTSPDDVVICQALIDYKSDFDLGVYWKTLNENGITKERLLSYDRAIHSEPNFRGDQKGGLLRDLGHYMRTLKAVHSGADLESAIANCMGYKTEGEGFMVGVQINPVSGLPSGFQDLLHFVLDHVEDKNVETLLERLLEAREELRPLLLKPNNRLKDLLFLDIALDSTVRTAVERGYEELNNANPEKIMYFISLVLENLALSVDDNEDLVYCLKGWNQALSMSNGGDNHWALFAKAVLDRTRLALASKAEWYHHLLQPSAEYLGSILGVDQWALNIFTEEIIRAGSAASLSSLLNRLDPVLRKTANLGSWQIISPVEAVGYVVVVDELLSVQNEIYEKPTILVAKSVKGEEEIPDGAVALITPDMPDVLSHVSVRARNGKVCFATCFDPNILADLQAKEGRILLLKPTPSDIIYSEVNEIELQSSSNLVEAETSATLRLVKKQFGGCYAISADEFTSEMVGAKSRNIAYLKGKVPSSVGIPTSVALPFGVFEKVLSDDINQGVAKELQILMKKLSEGDFSALGEIRTTVLDLSAPAQLVKELKEKMQGSGMPWPGDEGPKRWEQAWMAIKKVWASKWNERAYFSTRKVKLDHDYLCMAVLVQEIINADYAFVIHTTNPSSGDDSEIYAEVVRGLGETLVGAYPGRALSFICKKKDLNSPQVLGYPSKPIGLFIKRSIIFRSDSNGEDLEGYAGAGLYDSVPMDEEEKVVIDYSSDPLITDGNFRQTILSNIARAGHAIEELYGSPQDIEGVVRDGKIYVVQTRPQM
effect on glucose release when added to amylases [3]: almost doubled
time the protein was stable [4]: > 1 WEEK

B3: SEX4: Arabidopsis glucan phosphatase Starch EXcess4 (protein, UniProt Q9FEB5 55-379, looked up)
Phosphoglucan phosphatase …: SESKSSSEMSGVAKDEEKSDEYSQDMTQAMGAVLTYRHELGMNYNFIRPDLIVGSCLQTPEDVDKLRKIGVKTIFCLQQDPDLEYFGVDISSIQAYAKKYSDIQHIRCEIRDFDAFDLRMRLPAVVGTLYKAVKRNGGVTYVHCTAGMGRAPAVALTYMFWVQGYKLMEAHKLLMSKRSCFPKLDAIRNATIDILTGLKRKTVTLTLKDKGFSRVEISGLDIGWGQRIPLTLDKGTGFWILKRELPEGQFEYKYIIDGEWTHNEAEPFIGPNKDGHTNNYAKVVDDPTSVDGTTRERLSSEDPELLEEERSKLIQFLETCSEAEV
effect on glucose release when added to amylases [3]: did not enhance glucose release on its own
effect on glucose release when used with AtGWD ([3]; amylases plus AtGWD plus SEX4 (full starch phosphorylation cycle)): more than doubling
effect on glucose release when used with St-GWD ([3]; amylases plus St-GWD plus SEX4 (full starch phosphorylation cycle)): more than doubling
